PMC8605104 (STAR Protocols, 2021)

What was measured:
[1] = biological target: the molecule itself
[2] = biological target: T1, bacteriophage T7 ejection protein gp16 (internal virion protein), N-terminal 10x His-tagged, full-length (bacteriophage T7, UniProt P03726 1-1318)
T1 sequence (looked up): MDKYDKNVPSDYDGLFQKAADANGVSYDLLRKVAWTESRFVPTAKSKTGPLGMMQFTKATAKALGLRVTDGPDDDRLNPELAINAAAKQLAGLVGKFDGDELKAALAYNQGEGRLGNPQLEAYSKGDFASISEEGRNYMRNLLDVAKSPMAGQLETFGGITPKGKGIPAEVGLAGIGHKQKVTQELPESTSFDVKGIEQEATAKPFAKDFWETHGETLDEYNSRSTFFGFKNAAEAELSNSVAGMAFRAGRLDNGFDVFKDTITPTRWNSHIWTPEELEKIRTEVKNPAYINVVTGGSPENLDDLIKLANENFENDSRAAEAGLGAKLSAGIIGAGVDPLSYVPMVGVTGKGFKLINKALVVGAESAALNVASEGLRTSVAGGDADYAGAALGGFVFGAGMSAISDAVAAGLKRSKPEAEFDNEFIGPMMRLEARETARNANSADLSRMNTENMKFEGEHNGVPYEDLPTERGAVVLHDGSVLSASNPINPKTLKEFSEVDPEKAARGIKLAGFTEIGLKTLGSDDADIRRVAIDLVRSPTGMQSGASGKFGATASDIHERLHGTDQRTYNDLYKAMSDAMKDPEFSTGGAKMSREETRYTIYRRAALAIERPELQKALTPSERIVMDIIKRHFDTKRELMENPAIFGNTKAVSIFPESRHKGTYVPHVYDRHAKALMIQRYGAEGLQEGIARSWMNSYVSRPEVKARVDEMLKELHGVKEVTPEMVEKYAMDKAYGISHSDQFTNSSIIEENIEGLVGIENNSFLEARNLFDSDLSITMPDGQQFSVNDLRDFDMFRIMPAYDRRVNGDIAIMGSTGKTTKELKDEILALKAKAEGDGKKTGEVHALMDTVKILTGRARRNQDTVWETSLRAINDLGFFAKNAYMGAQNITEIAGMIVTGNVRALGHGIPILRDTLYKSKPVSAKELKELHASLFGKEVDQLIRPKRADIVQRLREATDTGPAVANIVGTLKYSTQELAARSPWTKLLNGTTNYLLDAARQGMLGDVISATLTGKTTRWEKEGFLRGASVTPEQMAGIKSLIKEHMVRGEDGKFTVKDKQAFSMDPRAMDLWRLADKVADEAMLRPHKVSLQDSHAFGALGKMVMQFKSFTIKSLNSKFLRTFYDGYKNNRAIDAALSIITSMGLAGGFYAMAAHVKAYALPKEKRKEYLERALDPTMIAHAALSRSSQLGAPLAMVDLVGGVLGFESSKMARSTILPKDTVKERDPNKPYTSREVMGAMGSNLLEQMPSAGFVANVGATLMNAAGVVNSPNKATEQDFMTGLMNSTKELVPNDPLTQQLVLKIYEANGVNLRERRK

B1: bacteriophage T7 ejection protein gp15 (internal virion protein), N-terminal 10x His-tagged, full-length (natural protein, UniProt P03725 1-747, looked up)
chain: MSKIESALQAAQPGLSRLRGGAGGMGYRAATTQAEQPRSSLLDTIGRFAKAGADMYTAKEQRARDLADERSNEIIRKLTPEQRREALNNGTLLYQDDPYAMEALRVKTGRNAAYLVDDDVMQKIKEGVFRTREEMEEYRHSRLQEGAKVYAEQFGIDPEDVDYQRGFNGDITERNISLYGAHDNFLSQQAQKGAIMNSRVELNGVLQDPDMLRRPDSADFFEKYIDNGLVTGAIPSDAQATQLISQAFSDASSRAGGADFLMRVGDKKVTLNGATTTYRELIGEEQWNALMVTAQRSQFETDAKLNEQYRLKINSALNQEDPRTAWEMLQGIKAELDKVQPDEQMTPQREWLISAQEQVQNQMNAWTKAQAKALDDSMKSMNKLDVIDKQFQKRINGEWVSTDFKDMPVNENTGEFKHSDMVNYANKKLAEIDSMDIPDGAKDAMKLKYLQADSKDGAFRTAIGTMVTDAGQEWSAAVINGKLPERTPAMDALRRIRNADPQLIAALYPDQAELFLTMDMMDKQGIDPQVILDADRLTVKRSKEQRFEDDKAFESALNASKAPEIARMPASLRESARKIYDSVKYRSGNESMAMEQMTKFLKESTYTFTGDDVDGDTVGVIPKNMMQVNSDPKSWEQGRDILEEARKGIIASNPWITNKQLTMYSQGDSIYLMDTTGQVRVRYDKELLSKVWSENQKKLEEKAREKALADVNKRAPIVAATKAREAAAKRVREKRKQTPKFIYGRKE
**Q.** What does the source list for B1?
**A.** stoichiometry N [1]: 6; stoichiometry N [2]: 1 gp15:gp16 (6:6)
